Test results from paper doi:10.1101/2025.06.27.661946 (bioRxiv, 2025).
Values belong to the molecule of their own block, whether it stands above or below them.

Experiments:
[1] = molecular target: ATG101 (human) (UniProt Q9BSB4); assay: mass photometry
[2] = molecular target: ATG101 (human) (UniProt Q9BSB4); assay: cross-linking
[3] = molecular target: ATG101 co-expressed with ULK1 (human) (UniProt Q9BSB4); assay: mass photometry
[4] = molecular target: His-ATG101 (human) (UniProt Q9BSB4); assay: mass photometry
[5] = molecular target: phospho-mimetic ATG101 mutants S11D and S203D (human) (UniProt Q9BSB4); assay: mass photometry
[6] = molecular target: phosphorylated ATG101 (His-ATG101 phosphorylated in vitro by ULK1) (human) (UniProt Q9BSB4); assay: mass photometry
[7] = molecular target: phosphorylated ATG101 purified from insect cells treated with Okadaic Acid (human) (UniProt Q9BSB4); assay: mass photometry
[8] = molecular target: ATG13-ATG101^Alexa488 (pre-formed complex) (UniProt Q9BSB4); assay: fluorescence polarisation
[9] = molecular target: T1, ^MBPATG13 full-length (UniProt O75143 1-517); assay: fluorescence polarisation
T1 sequence: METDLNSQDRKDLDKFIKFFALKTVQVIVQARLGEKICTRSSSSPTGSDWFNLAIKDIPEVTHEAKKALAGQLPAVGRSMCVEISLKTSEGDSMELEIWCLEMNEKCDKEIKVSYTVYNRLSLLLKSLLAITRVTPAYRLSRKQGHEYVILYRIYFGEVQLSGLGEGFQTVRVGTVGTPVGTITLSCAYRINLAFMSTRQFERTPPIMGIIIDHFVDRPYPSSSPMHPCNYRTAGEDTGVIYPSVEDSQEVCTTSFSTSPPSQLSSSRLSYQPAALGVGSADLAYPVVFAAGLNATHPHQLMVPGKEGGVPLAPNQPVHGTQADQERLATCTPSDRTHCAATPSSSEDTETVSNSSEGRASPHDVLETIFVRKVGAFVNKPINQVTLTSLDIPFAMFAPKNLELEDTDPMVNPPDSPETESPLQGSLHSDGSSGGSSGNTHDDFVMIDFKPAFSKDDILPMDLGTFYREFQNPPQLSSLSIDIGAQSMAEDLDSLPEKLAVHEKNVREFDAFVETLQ

stoichiometry N [1]: 2 | stoichiometry N [2]: 2
Molecule: ATG101 (from UniProt Q9BSB4 1-218) (natural protein)

stoichiometry N [3]: 2
Molecule: ATG101 co-expressed with ULK1 (from UniProt Q9BSB4 1-218) (natural protein)

stoichiometry N [4]: 2
Molecule: His-ATG101 (from UniProt Q9BSB4 1-218) (natural protein)

stoichiometry N [5]: 2
Molecule: phospho-mimetic ATG101 mutants S11D and S203D (from UniProt Q9BSB4 1-218) (natural protein)

Kd [6]: 100 to 250 nM | stoichiometry N [6]: 2
Molecule: phosphorylated ATG101 (His-ATG101 phosphorylated in vitro by ULK1) (from UniProt Q9BSB4 1-218) (natural protein)

stoichiometry N [7]: 2
Molecule: phosphorylated ATG101 purified from insect cells treated with Okadaic Acid (from UniProt Q9BSB4 1-218) (natural protein)

kon [8]: 15000 M⁻¹ s⁻¹
B1: ^MBPATG9A (natural protein)
chain: MAQFDTEYQRLEASYSDSPPGEEDLLVHVAEGSKSPWHHIENLDLFFSRVYNLHQKNGFTCMLIGEIFELMQFLFVVAFTTFLVSCVDYDILFANKMVNHSLHPTEPVKVTLPDAFLPAQVCSARIQENGSLITILVIAGVFWIHRLIKFIYNICCYWEIHSFYLHALRIPMSALPYCTWQEVQARIVQTQKEHQICIHKRELTELDIYHRILRFQNYMVALVNKSLLPLRFRLPGLGEAVFFTRGLKYNFELILFWGPGSLFLNEWSLKAEYKRGGQRLELAQRLSNRILWIGIANFLLCPLILIWQILYAFFSYAEVLKREPGALGARCWSLYGRCYLRHFNELEHELQSRLNRGYKPASKYMNCFLSPLLTLLAKNGAFFAGSILAVLIALTIYDEDVLAVEHVLTTVTLLGVTVTVCRSFIPDQHMVFCPEQLLRVILAHIHYMPDHWQGNAHRSQTRDEFAQLFQYKAVFILEELLSPIVTPLILIFCLRPRALEIIDFFRNFTVEVVGVGDTCSFAQMDVRQHGHPQWLSAGQTEASVYQQAEDGKTELSLMHFAITNPGWQPPRESTAFLGFLKEQVQRDGAAASLAQGGLLPENALFTSIQSLQSESEPLSLIANVVAGSSCRGPPLPRDLQGSRHRAEVASALRSFSPLQPGQAPTGRAHSTMTGSGVDARTASSGSSVWEGQLQSLVLSEYASTEMSLHALYMHQLHKQQAQAEPERHVWHRRESDESGESAPDEGGEGARAPQSIPRSASYPCAAPRPGAPETTALHGGFQRRYGGITDPGTVPRVPSHFSRLPLGGWAEDGQSASRHPEPVPEEGSEDELPPQVHKV

kon [9]: 14.7 M⁻¹ s⁻¹
B2: phosphorylated ATG101^Alexa488 (natural protein)
chain: MNCRSEVLEVSVEGRQVEEAMLAVLHTVLLHRSTGKFHYKKEGTYSIGTVGTQDVDCDFIDFTYVRVSSEELDRALRKVVGEFKDALRNSGGDGLGQMSLEFYQKKKSRWPFSDECIPWEVWTVKVHVVALATEQERQICREKVGEKLCEKIINIVEVMNRHEYLPKMPTQSEVDNVFDTGLRDVQPYLYKISFQITDALGTSVTTTMRRLIKDTLAL

kon [9]: 14.7 M⁻¹ s⁻¹
B3: ATG101^Alexa488 (natural protein)
chain: MNCRSEVLEVSVEGRQVEEAMLAVLHTVLLHRSTGKFHYKKEGTYSIGTVGTQDVDCDFIDFTYVRVSSEELDRALRKVVGEFKDALRNSGGDGLGQMSLEFYQKKKSRWPFSDECIPWEVWTVKVHVVALATEQERQICREKVGEKLCEKIINIVEVMNRHEYLPKMPTQSEVDNVFDTGLRDVQPYLYKISFQITDALGTSVTTTMRRLIKDTLAL
